Test results as given in US10383919B1, “Fragments of growth hormone binding protein” (The University of the Sciences, priority 2013, dated 2019).
Where no end group is shown, it is not given here.

Tests used:
[1] = target: T1, rhGH (Homo sapiens, UniProt P01241); experiment: Equilibrium dialysis of GHBP peptides against rhGH (12-14 kDa MWCO membrane, MICRO-BCA read-out of lower chamber); assay type: binding; settings: 1:1 ratio of rhGH:peptide; 0.25 mg/ml hGH stock; starting peptide 11.36 uM; 37° C., 24 hours
T1 construct: purchased Bresagen, Adelaide, Australia
Protocol: Equilibrium Dialysis: High Throughput Equilibrium Dialysis was performed using the 96-well Micro-Equilibrium Dialysis Device HTD (HTDialysis, LLC, CT, USA) according to the supplier's directions. The dialysis membrane was a SPECTRA/POR cellulose ester membrane. We tested a 3.5-5 kDa Molecular Weight Cut-off (MWCO) SPECTRA/POR membrane and a 12-14 kDa Molecular Weight Cut-off (MWCO) SPECTRA/POR membrane for their ability to allow peptide equilibration. Peptides were added to the upper chamber of each well of both a 3.5-5 kDa MWCO and a 12-14 kDa MWCO membrane and incubated at 37° C. with shaking at 200 rpm for 24 hours. Concentration of the peptide in the upper and lower chamber was assayed using MICRO-BCA Assay (Pierce) according to the supplier's directions.
We then confirmed the ability of the 12-14 kDa MWCO membrane to retain the hGH. Lyophilized recombinant hGH (Bresagen, Adelaide, Australia) was dissolved in phosphate-buffered saline (PBS) plus 0.05% sodium azide. One-hundred uL of a 25 mg/mL solution plus 100 uL of PBS were added to the upper chamber of the micro-dialysis device fitted with a 12-14 kDa MWCO membrane and incubated at 37° C. with shaking at 200 rpm for 24 hours. Concentration of hGH in the upper and lower chamber was assayed using MICRO-BCA Assay (Pierce) according to the supplier's directions. […] We used the 12-14 kDa MWCO membrane for our binding assays.
The upper chamber of each well received 100 uL of 0.25 mg/ml hGH and 100 uL of a 22.72 uM peptide solution. The lower chamber of each well received 100 uL of buffer and 100 uL of a 22.72 uM peptide solution. Thus, the starting concentration of peptide in both the upper and lower portion of each well was 11.36 uM. Plates were incubated at 37° C., with shaking at 200 rpm for 24 hours. […] The assay was configured with a 1:2 sample: working reagent ratio and incubated 45° C. for 4 hours and read in a spectrophotometer at 562 nm. Concentrations of peptide in the lower chamber were determined based on the equations generated by the standard curves for each peptide. […]

[2] = cited from earlier work

T1 sequence (P01241 27-217): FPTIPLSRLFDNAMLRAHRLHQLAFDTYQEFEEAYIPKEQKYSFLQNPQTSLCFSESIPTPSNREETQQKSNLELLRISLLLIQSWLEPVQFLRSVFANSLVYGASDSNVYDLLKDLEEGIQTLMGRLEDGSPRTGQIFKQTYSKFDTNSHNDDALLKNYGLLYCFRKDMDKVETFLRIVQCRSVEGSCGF

concentration of peptide in the lower chamber in the presence of rhGH (binding to rhGH) [1]	Substance	half-life in the bloodstream [2]
substantially reduced	R-R-N-T-Q-E (RRNTQE; listed as Homo sapiens) [Peptide 3, hGHBP fragment Arginine-70 to Glutamate-76]	
substantially reduced	S-P-E-R-E-T-F-S (SPERETFS; listed as Homo sapiens) [Peptide 1, hGHBP fragment Serine-40 to Serine-47]	
substantially reduced	TSIWIPYCIGKCFSVDEIVQPD (TSIWIPYCIGKCFSVDEIVQPD; not fully specified; printed as Thr-Ser-Ile-Trp-Ile-Pro-Tyr-Cys-Ile-Gly-Lys-Cys-Phe-Ser-Val-Asp-Glu-Ile-Val-Gln-Pro-Asp; cysteine pairing not given here; listed as Homo sapiens) [Peptide 7, Peptide 5 & Peptide 6 bridged]	
	hGH: Human growth hormone (somatotropin or somatropin), a peptide hormone; recombinant hGH (Bresagen) was used in the binding assays	about fifteen
